This is an account of results in paper PMC4401514.

This assay addresses activated Cry1Ac toxin of Bacillus thuringiensis subsp. kurstaki HD73 (Bacillus thuringiensis subsp. kurstaki HD73) (UniProt P05068). As to the kind of experiment: SPR; BIAcore 3000; Cry1Ac immobilised on CM5 chip by amine coupling; HaALP1f injected at 31.25-500 nM; HBS (10 mM HEPES, 150 mM NaCl, 0.005% Tween20, pH 7.4), 40 ul/min; 1:1 Langmuir model; apparent rate constants.

In the case of “HaALP1f, his-tagged fragment of alkaline phosphatase HaALP1 from Helicoverpa armigera (from UniProt B4Z1D6 192-451) (domain or fragment)”, the Kd was determined as 7.58 nM, the koff stood at 0.00248 s⁻¹ and the kon turned out to be 327000 M⁻¹ s⁻¹.
